T1: Biotinylated murine VEGF-164 (Acro Biosystem) (mouse, UniProt Q00731-2 27-190, biotinylated (site not stated))
T1 construct: Bought protein; also called Mouse VEGF164; mouse VEGFA
T1 sequence (looked up): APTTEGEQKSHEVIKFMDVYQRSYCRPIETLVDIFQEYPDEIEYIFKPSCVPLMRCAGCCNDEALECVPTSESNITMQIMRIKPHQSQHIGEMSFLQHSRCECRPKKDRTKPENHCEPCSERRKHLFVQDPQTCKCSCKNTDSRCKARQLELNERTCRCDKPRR

T2: Human VEGF-121 (Acro Biosystems) (human, UniProt P15692 207-395)
T2 construct: Bought protein; also called human VEGFA
T2 sequence: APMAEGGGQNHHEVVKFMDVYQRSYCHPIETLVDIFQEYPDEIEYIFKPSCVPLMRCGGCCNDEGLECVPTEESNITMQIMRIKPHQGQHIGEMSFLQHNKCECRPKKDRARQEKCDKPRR


Tests used:
[1] = target: T3, Biotinylated human VEGF-165 (Acro Biosystem) (human, UniProt P15692 207-395, biotinylated (site not stated)); assay: BLI, biotinylated antigen on streptavidin tips, 1:1 global fit
T3 construct: Bought protein; also called human VEGFA
Procedure: (§1) Binding characterization was performed using BLI (Satorius) at RT with a 1000 rpm flow-rate. Biotinylated human VEGF-165 (Acro Biosystem) was immobilized onto Streptavidin-coated tips at a concentration of 3 μg/mL for 60 sec in BLI buffer (0.1% BSA and 0.01% Tween-20 in PBS). After a 30 sec baseline, anti-VEGFA DotBodies were associated at 8 different concentrations, including a blank reference, in BLI buffer for 60 sec, followed by a 400 sec dissociation in BLI buffer. The background buffer signal was subtracted using the 0 nM concentration reference, and the kinetics of binding were calculated using a global fit following a 1:1 binding model, using BLI Analysis Software. The bivalent molecule 16A2.1x2 was also characterized as described here, but with a 600 sec dissociation. To characterize the binding of all the clones against murine VEGFA, the same procedure was employed, but the immobilized target was replaced with biotinylated murine VEGF-164 (Acro Biosystem).

[2] = target: T1, Biotinylated murine VEGF-164 (Acro …); assay: as above
Procedure: as §1

[3] = target: T2, Human VEGF-121 (Acro Biosystems); assay: competitive ELISA, inhibition of VEGF-121 (0.5 nM) binding to coated VEGFR1 (FIG. 5)
Procedure: (§2) To perform the competitive ELISA, the VEGFR1 was immobilized at a concentration of 2 μg/mL onto a Maxisorp 96-well plate (Thermo Scientific) overnight at 4° C., washed three times with PBS and blocked for 1 h at RT with ELISA Block Buffer (EBB: 0.2% BSA in PBST). […] The samples were incubated for 2 h at RT, and 50 μL transferred onto the VEGFR1-coated plate. After 2 h incubation, the plate was washed 3 times with PBST. 50 μL of streptavidin-HRP conjugate (Thermo Scientific) was added at a 1:5,000 dilution in EBB, and incubated for 1 h at RT. The plate was washed 5 times with PBST, and developed with 50 μL 3,3′,5,5′-Tetramethylbenzidine (TMB) substrate (GeneTex). After 5-15 min, the reactions were stopped by adding 50 μL of 2M H₂SO₄, and signal was measured at an absorbance of 450 nm.

[4] = target: T3, Biotinylated human VEGF-165 (Acro …); assay: BLI, biotinylated antigen on streptavidin tips, 600 sec dissociation, 1:1 global fit
Procedure: as §1

[5] = target: T2, Human VEGF-121 (Acro Biosystems); assay: competitive ELISA, inhibition of VEGF-121 (0.5 nM) binding to coated VEGFR1 (FIG. 4)
Procedure: as §2

[6] = target: T3, Biotinylated human VEGF-165 (Acro …); assay: not stated at this place (BLI in Example 10)
Procedure: as §1

Binder | Kd [1] [nM] | koff [1] [s⁻¹] | kon [1] [M⁻¹ s⁻¹] | Kd [2] [nM] | koff [2] [s⁻¹] | kon [2] [M⁻¹ s⁻¹] | IC50 [3] [nM] | Kd [4] [nM] | koff [4] [s⁻¹] | kon [4] [M⁻¹ s⁻¹] | IC50 [5] [nM] | Kd [6] [nM]
20A2.1 (VHH, Autonomous humanised VH domain (DotBody), from the 16A2.1-based library with heat challenge; E. coli, ATG codon 5' (possible initiator Met), 3' hexahistidine tag; also called DotBody 20A2.1) VHH: EVQLVESGGGLVQPGGSLRLSCAISGFPLADTDIDWVRQAPGKGLEWVARIFSSYGSTDYADSVKGRFTISADTSKNTVYLQMNSLRAEDTAVYYCGRSDSIAYNIILPASTYSSRDYRGQGTLVTVSS | 5.54 | 0.00055 | 97700 | 10.2 | 0.00135 | 132000 | 1.6 | – | – | – | – | –
16A2.1x2 (VHH, Tandem of two 16A2.1 VH domains in one chain; 'produced in the same way' as the single clones (E. coli, ATG codon 5', 3' hexahistidine tag); also called bivalent molecule 16A2.1x2; bivalent 16A2.1x2 molecule) SEVQLVESGGGLVQPGGSLRLSCAISGFALAETDIDWVRQAPGKGLEWVARIFSSGGNTDYADSVKGRFTISADTSKNTVYLQMNSLRAEDTAVYYCGRSDSIAYNVILPNSTYTARDYRGQGTLVTVSSGGGGSGGGGSGGGGSGGGGSGGGGSGGGGSGGGGSEVQLVESGGGLVQPGGSLRLSCAISGFALAETDIDWVRQAPGKGLEWVARIFSSGGNTDYADSVKGRFTISADTSKNTVYLQMNSLRAEDTAVYYCGRSDSIAYNVILPNSTYTARDYRGQGTLVTVSSHHHHHH | – | – | – | – | – | – | – | 0.301 | 0.000128 | 426000 | – | –
13A6 (VHH, Autonomous humanised VH domain (DotBody); also called anti-VEGF DotBody 13A6; clone 13A6) VHH: EVQLVESGGGLVQPGGSLRLSCAISGFSLAATDIDWVRQAPGKGLEWVARIFPSAGSTDYADSVKGRFTISADTSKNTVYLQMNSLRAEDTAVYYCGRSDSYSYNVFLHNPTYTALDYRGQGTLVTVSS | 38.9 | 0.00475 | 122000 | 248 | 0.0104 | 41900 | – | – | – | – | 5900 | –
16A6.1 (VHH, E. coli, ATG codon 5' (possible initiator Met), 3' hexahistidine tag; also called clone 16A6.1) VHH: EVQLVESGGGLVQPGGSLRLSCAISGFSLAATDIDWVRQAPGKGLEWVARIFPFSGSTDYTDSVKGRFTISADTSKNTVYLQMNSLRAEDTAVYYCGRSDSYSYNVFLHDPAYTALDYRGQGTLVTVSS | 14.7 | 0.00136 | 92400 | 18.4 | 0.00225 | 122000 | – | – | – | – | 41.4 | –
16A2.1 (VHH, E. coli, ATG codon 5' (possible initiator Met), 3' hexahistidine tag; also called anti-VEGF DotBody 16A2.1; clone 16A2.1) VHH: EVQLVESGGGLVQPGGSLRLSCAISGFALAETDIDWVRQAPGKGLEWVARIFSSGGNTDYADSVKGRFTISADTSKNTVYLQMNSLRAEDTAVYYCGRSDSIAYNVILPNSTYTARDYRGQGTLVTVSS | 2.5 | 0.000986 | 394000 | 16.6 | 0.00193 | 116000 | 3 | – | – | – | 12.2 | < 5

The remaining lines, values ahead:

Kd [1] [nM] | koff [1] [s⁻¹] | kon [1] [M⁻¹ s⁻¹] | Kd [2] [nM] | koff [2] [s⁻¹] | kon [2] [M⁻¹ s⁻¹] | IC50 [3] [nM] | Kd [4] [nM] | koff [4] [s⁻¹] | kon [4] [M⁻¹ s⁻¹] | IC50 [5] [nM] | Kd [6] [nM] | Binder
2.8 | 0.000802 | 286000 | 8.34 | 0.00169 | 205000 | 1.4 | – | – | – | – | – | 23D5.1 (VHH, Autonomous humanised VH domain (DotBody), from the 16C2.1-based library without heat challenge; E. coli, ATG codon 5' (possible initiator Met), 3' hexahistidine tag; also called DotBody 23D5.1) VHH: EVQLVESGGGLVQPGGSLRLSCAISGFDLATTDIDWVRQAPGKGLEWVARIFRPSDFTDYADSVKGRFTISADTSKNTVYLQMNSLRAEDTAVYYCVRPDSYAYNILFVTRTFNALHYRGQGTLVTVSS
20.5 | 0.00099 | 48200 | 41.7 | 0.00243 | 58000 | 1 | – | – | – | – | – | 21D9.1 (VHH, Autonomous humanised VH domain (DotBody), from the 16C2.1-based library with heat challenge; E. coli, ATG codon 5' (possible initiator Met), 3' hexahistidine tag; also called DotBody 21D9.1) VHH: EVQLVESGGGLVQPGGSLRLSCAISGFSLGATDIDWVRQAPGKGLEWVARIFSPSDFTDYADSVKGRFTISADTSKNTVYLQMNSLRAEDTAVYYCSRPDTYAYNIFPHTASHGAFNYRGQGTLVTVSS
2.78 | 0.000725 | 260000 | 8.7 | 0.000889 | 102000 | 0.9 | – | – | – | – | – | 20A3.1 (VHH, Autonomous humanised VH domain (DotBody), from the 16A2.1-based library with heat challenge; E. coli, ATG codon 5' (possible initiator Met), 3' hexahistidine tag; also called DotBody 20A3.1) VHH: EVQLVESGGGLVQPGGSLRLSCAISGFSLADTDIDWVRQAPGKGLEWVARIFSSSGSTYYADSVKGRFTISADTSKNTVYLQMNSLRAEDTAVYYCDRADSVGYNVIFPGSTYSRSGYRGQGTLVTVSS
6.3 | 0.000442 | 69600 | 14.2 | 0.00117 | 82800 | 7.5 | – | – | – | – | – | 21E6.1 (VHH, Autonomous humanised VH domain (DotBody), from the 16C2.1-based library with heat challenge; E. coli, ATG codon 5' (possible initiator Met), 3' hexahistidine tag; also called DotBody 21E6.1) VHH: EVQLVESGGGLVQPGGSLRLSCAISGFTLAATDIDWVRQAPGKGLEWVARIFTPTGFSDYADSVKGRFTISADTSKNTVYLQMNSLRAEDTAVYYCGIPELYAYNIFMDIPAYNDVYYRGQGTLVTVSS
11.3 | 0.00103 | 91500 | 13.8 | 0.00231 | 167000 | 0.9 | – | – | – | – | – | 21A1.1 (VHH, Autonomous humanised VH domain (DotBody), from the 16C2.1-based library with heat challenge; E. coli, ATG codon 5' (possible initiator Met), 3' hexahistidine tag; also called DotBody 21A1.1) VHH: EVQLVESGGGLVQPGGSLRLSCAISGFALATTDIDWVRQAPGKGLEWVARIFNPSDFTDYADSVKGRFTISADTSKNTVYLQMNSLRAEDTAVYYCGRPAVYGYNIFLDSPTYDASQYRGQGTLVTVSS
20 | 0.00118 | 58000 | 46.1 | 0.00292 | 63400 | 1.8 | – | – | – | – | – | 21A8.1 (VHH, Autonomous humanised VH domain (DotBody), from the 16C2.1-based library with heat challenge; E. coli, ATG codon 5' (possible initiator Met), 3' hexahistidine tag; also called DotBody 21A8.1) VHH: EVQLVESGGGLVQPGGSLRLSCAISGFSVDATDIDWVRQAPGKGLEWVARIFSPSGFTDYADSVKGRFTISADTSKNTVYLQMNSLRAEDTAVYYCDRPEFYAYNIFHDPRTVPAGNYRGQGTLVTVSS
